The source of these data is patent US20030170203A1 (Human Genome Sciences, published 2003).

In general, koff refers to a measure of how fast the partners let go of each other. Broadly, the kon is the rate constant with which the complex forms. Usually Kd stands for the free concentration of one partner at which half of the binding sites on the other are occupied at equilibrium, for simple one-to-one binding.

To fix the notation:
T1: non-tagged form of TR6 (UniProt O95407 30-300)
T1 construct: also called TNFR-6 alpha; DcR3
T1 sequence (looked up): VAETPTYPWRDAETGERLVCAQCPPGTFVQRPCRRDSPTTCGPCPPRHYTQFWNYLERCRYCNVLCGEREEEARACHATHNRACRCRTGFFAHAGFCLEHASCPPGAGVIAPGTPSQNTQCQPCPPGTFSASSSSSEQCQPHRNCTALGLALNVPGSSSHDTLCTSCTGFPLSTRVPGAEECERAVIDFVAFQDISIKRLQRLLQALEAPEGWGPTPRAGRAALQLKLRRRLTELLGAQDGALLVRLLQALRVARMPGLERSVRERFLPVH

T2: Fc-fusion form of the extracellular domain of DR6 (UniProt O75509 42-349, limits assumed)
T2 construct: extracellular domain; not shown: Fc
T2 sequence (looked up): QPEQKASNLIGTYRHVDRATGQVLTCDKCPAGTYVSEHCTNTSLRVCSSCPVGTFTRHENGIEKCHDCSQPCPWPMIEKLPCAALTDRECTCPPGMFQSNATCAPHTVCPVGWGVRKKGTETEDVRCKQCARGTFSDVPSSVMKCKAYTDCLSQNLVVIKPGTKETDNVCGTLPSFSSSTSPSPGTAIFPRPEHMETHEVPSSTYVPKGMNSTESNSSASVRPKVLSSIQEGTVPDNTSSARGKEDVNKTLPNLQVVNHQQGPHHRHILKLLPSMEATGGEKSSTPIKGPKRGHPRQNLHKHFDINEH

T3: recombinant, untagged TNF-gamma-beta protein (aa 72-251) from E. coli (human, UniProt O95150 72-251)
T3 construct: Purified from E. coli
T3 sequence (looked up): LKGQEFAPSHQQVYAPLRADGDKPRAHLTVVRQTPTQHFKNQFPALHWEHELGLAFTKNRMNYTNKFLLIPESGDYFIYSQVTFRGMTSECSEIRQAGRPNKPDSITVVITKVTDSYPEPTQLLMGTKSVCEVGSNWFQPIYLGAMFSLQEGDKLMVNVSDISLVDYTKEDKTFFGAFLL

T4: FLAG-tagged soluble form of TNF-gamma-beta (aa 72-251) (human, UniProt O95150 72-251)
T4 construct: also called FLAG-TL1β; FLAG-TNF-gamma-beta; not shown: FLAG tag of vector pFLAGCMV1
T4 sequence (looked up): T3 sequence (looked up)

T5: FADD (UniProt Q13158 1-208)
T5 construct: 35S-labeled by in vitro transcription-translation for the GST pull-down; also called AU1-FADD; FADD/MORT1
T5 sequence (looked up): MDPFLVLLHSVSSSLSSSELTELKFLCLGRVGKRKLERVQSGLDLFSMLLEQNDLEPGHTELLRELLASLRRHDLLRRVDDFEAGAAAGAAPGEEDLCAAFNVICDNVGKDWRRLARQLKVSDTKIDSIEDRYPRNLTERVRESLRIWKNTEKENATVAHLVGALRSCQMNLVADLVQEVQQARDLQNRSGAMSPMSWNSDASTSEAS

T6: RIP (UniProt Q13546 1-671, limits assumed)
T6 construct: 35S-labeled by in vitro translation for the GST pull-down; also called myc-RIP
T6 sequence (looked up): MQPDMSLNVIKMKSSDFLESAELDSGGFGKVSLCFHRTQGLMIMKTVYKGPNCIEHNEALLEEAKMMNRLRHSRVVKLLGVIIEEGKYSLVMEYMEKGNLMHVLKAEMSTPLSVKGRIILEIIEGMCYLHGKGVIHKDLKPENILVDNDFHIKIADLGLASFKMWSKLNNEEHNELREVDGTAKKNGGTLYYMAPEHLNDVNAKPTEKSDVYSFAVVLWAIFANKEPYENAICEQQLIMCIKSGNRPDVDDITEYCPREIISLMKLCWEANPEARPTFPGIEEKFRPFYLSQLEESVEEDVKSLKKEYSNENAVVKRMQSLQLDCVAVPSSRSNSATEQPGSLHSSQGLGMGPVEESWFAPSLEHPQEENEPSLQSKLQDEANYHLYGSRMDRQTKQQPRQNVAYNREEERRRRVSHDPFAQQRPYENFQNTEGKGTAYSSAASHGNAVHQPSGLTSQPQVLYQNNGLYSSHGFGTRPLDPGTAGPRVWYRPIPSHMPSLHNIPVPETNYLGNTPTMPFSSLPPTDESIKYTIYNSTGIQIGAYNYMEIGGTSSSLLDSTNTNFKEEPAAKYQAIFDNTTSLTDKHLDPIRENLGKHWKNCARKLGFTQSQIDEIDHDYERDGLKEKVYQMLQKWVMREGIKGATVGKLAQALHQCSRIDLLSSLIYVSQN

B1: full length TNF-gamma-beta expressed on the cell surface (ligand, human, UniProt O95150 1-251, looked up)
chain: MAEDLGLSFGETASVEMLPEHGSCRPKARSSSARWALTCCLVLLPFLAGLTTYLLVSQLRAQGEACVQFQALKGQEFAPSHQQVYAPLRADGDKPRAHLTVVRQTPTQHFKNQFPALHWEHELGLAFTKNRMNYTNKFLLIPESGDYFIYSQVTFRGMTSECSEIRQAGRPNKPDSITVVITKVTDSYPEPTQLLMGTKSVCEVGSNWFQPIYLGAMFSLQEGDKLMVNVSDISLVDYTKEDKTFFGAFLL
notes: whole, on cells; also called TNF-gamma-beta expressing cells
B2: extracellular domain of human DR3 (aa 1-199) fused at its C-terminus to the Fc domain of human IgG1 (Fc fusion, not shown: a dimerising Fc or GST)
chain: QGGTRSPRCDCAGDFHKKIGLFCCRGCPAGHYLKAPCTEPCGNSTCLVCPQDTFLAWENHHNSECARCQACDEQASQVALENCSAVADTRCGCKPGWFVECQVSQCVSSSPFYCQPCLDCGALHRHTRLLCSRRDTDCGTCLPGFYEHGDGCVSCPTSTLGSCPERCAAVCGWRQ
notes: also called DR3-Fc; DR3.Fc
B3: BCMA-Fc (Fc fusion, human, UniProt Q02223 1-54, looked up)
chain: MLQMAGQCSQNEYFDSLLHACIPCQLRCSSNTPPLTCQRYCNASVTNSVKGTNA
notes: Control receptor surface of the BIAcore analysis; not shown: Fc
B4: extracellular domain of human TACI (aa 1-159) fused at its C-terminus to the Fc domain of human IgG1 (Fc fusion, UniProt O14836 1-159, looked up, not shown: a dimerising Fc or GST)
chain: MSGLGRSRRGGRSRVDQEERFPQGLWTGVAMRSCPEEQYWDPLLGTCMSCKTICNHQSQRTCAAFCRSLSCRKEQGKFYDHLLRDCISCASICGQHPKQCAYFCENKLRSPVNLPPELRRQRSGEVENNSDNSGRYQGLEHRGSEASPALPGLKLSADQ
notes: range 1-159; also called TACI-Fc
B5: GST fusion of the cytoplasmic domain of DR3 (amino acid residues 215-393 (SEQ ID NO:4)) (other)
chain: AGMEALTPPPATHLSPLDSAHTLLAPPDSSEKICTVQLVGNSWTPGYPETQEALCPQVTWSWDQLPSRALGPAAAPTLSPESPAGSPAMMLQPGPQLYDVMDAVPARRWKEFVRTLGLREAEIEAVEVEIGRFRDQQYEMLKRWRQQQPAGLGAVYAALERMGLDGCVEDLRSRLQRGP
notes: Made in E. coli BL21 (DE3) pLysS and immobilized on glutathione-agarose beads; The results paragraph calls it GST-DDCR (DDCR is the former name of DR3); also called GST-DR3; GST-DDCR; not shown: glutathione S-transferase from vector pGSTag

For assay [1], the target named is T1, non-tagged form of TR6. Nature of the assay: flow cytometry, competition with DR3-Fc for TNF-gamma-beta on HEK293F cells. The method, then: (§1) TR6 has been previously described as a decoy receptor (Pitti et al., Nature 396:699-703 (1998); Yu et al., J. Biol Chem. 274:13733-6 (1999)) capable of competing with Fas and HveA for binding of FasL and LIGHT, respectively.
(§2) One million cells, in 0.1 ml of FACS buffer (PBS, 0.1% BSA, 0.1% NaN₃), were incubated with 0.1-1 microgram of protein or antibody at RT for 15 min. The cells were washed with 3 ml of FACS buffer, reacted with biotinylated primary antibody, and stained with PE-conjugated secondary antibody at RT for 15 min. Cells were then washed again, resuspended in 0.5 microgram/ml of propidium iodide, and live cells were gated and analyzed on a FACScan using the CellQuest software (BD Biosciences).

The target in assay [2] is T2, Fc-fusion form of the extracellular …. Kind of assay: flow cytometry on HEK293F stable transfectants expressing full length TNF-gamma-beta. How it is done: as §1, §2
The target in assay [3] is T3, recombinant, untagged TNF-gamma-beta …. Nature of the assay: BIAcore 3000 (SPR), DR3-Fc amine-coupled to CM5 chip, TNF-gamma-beta 3-370 nM in flow, 1:1 binding model; DR3-Fc on the chip. The method, then: (§3) TNFR-Fc were covalently immobilized to the BIAcore sensor chip (CM5 chip) via amine groups using N-ethyl-N′-(dimethylaminopropyl) carbodiimide/N-hydroxysuccinimide chemistry. […] The amount of bound protein was determined during washing of the flow cell with HBS buffer (10 mM HEPES, pH 7.4, 150 mM NaCl, 3.4 mM EDTA, 0.005% Surfactant P20). The flow cell surface was regenerated by displacing bound protein by washing with 20 microliters of 10 mM glycine-HCl, pH 2.3. For kinetic analysis, the on and off rates were determined using the kinetic evaluation program in BIAevaluation 3 software using a 1:1 binding model and the global analysis method.

For assay [4] the target is unchanged. Kind of assay: BIAcore 3000 (SPR), DR3-Fc amine-coupled to CM5 chip, three batches of TNF-gamma-beta, 1:1 binding model; DR3-Fc; average of three batches of TNF-gamma-beta. The method, then:
as §3
In general terms: In SPR one partner is held on a chip, and binding of the other changes the refractive index at the surface.

The target is the same in assay [5]. Nature of the assay: BIAcore 3000 (SPR), receptor-Fc amine-coupled to CM5 chip, TNF-gamma-beta in flow. The method, then: as §3
For assay [6], the target named is T4, FLAG-tagged soluble form of …. Kind of assay: co-immunoprecipitation with protein A-Sepharose, anti-Flag M2 immunoblot. From the text:
The beads were then precipitated and washed extensively with PBST buffer (PBS, 0.5% Triton X-100) before boiled in SDS-sample buffer. Proteins were resolved on 4-20% Tris-Glycine gels (NOVEX), transferred to nitrocellulose membranes, and blotted with anti-Flag M2 monoclonal antibody (1 microgram/ml, Sigma) and horseradish peroxidase (HRP)-conjugated goat anti-mouse IgG antibody (0.5 microgram/ml).
(A western blot detects proteins with antibodies after separation by electrophoresis.)

The target in assay [7] is B1. Nature of the assay: flow cytometry on HEK293F stable transfectants expressing full length TNF-gamma-beta. The method, then: as §1, §2
On the technique in general: A flow cytometer gives signals particle by particle.

Assay [8] addresses T5, FADD. Kind of assay: GST pull-down of in vitro translated 35S-labeled protein, SDS-PAGE and autoradiography. The method, then:
(§4) In vitro binding experiments were performed as described previously (A. M. Chinnaiyan et al., Cell 81: 505-12 (1995); M. P. Boldin et al., J Biol Chem 270: 7795-8 (1995); F. C. Kischkel etal., EMBO 14: 5579-5588 (1995)). […] Following translation, equal amounts of total ³⁵S-labeled reticulocyte lysate were diluted into 150 μl GST binding buffer (50 mM Tris, pH 7.6,120 mM NaCl, 1% NP-40) and incubated for 2 hrs. at 4° C. with the various GST fusion proteins complexed to beads, following the beads were pelleted by plus centrifugation, washed three times in GST buffer, boiled in SDS-sample buffer and resolved on a 12.5% SDS-PAGE. Bound proteins were visualized following autoradioraphy at −80° C. […] After the beads were washed, retained proteins were analyzed by SDS-PAGE and autoradiography. The gel was Coomassie stained to monitor equivalency of loading.
(§5) As an initial screen, in vitro translated radiolabeled DAMs were precipitated with various glutathione S-transferase (GST) fusion proteins immobilized on glutathione-Sepharose beads.

In assay [9] the target is T6, RIP. The assay is described as above. The method, then: as §4, §5

Consider B1, for which the binding result is given as “binds” in assay [1] and “no binding” in assay [2].
On to B2, for which, in assay [3], the off-rate (koff) worked out at 0.00413 s⁻¹ and the kon came out at 639000 M⁻¹ s⁻¹. Also, the Kd in assay [4] came out at 6.45 nM.
B3: in assay [5], the binding result is reported as “no binding (tested: 3-370 nM)”.
Turning to B4, the binding result in [6] and in [7] was “no binding” in each case.
Turning to B5, the binding result in assay [8] and in [9] was “no binding” in each case.
